Test results taken from patent US20250059285A1 (ARGENX, published 2025).

Tests used:
[1] = target: T1, human Gal10-His (human, UniProt Q05315 2-142, limits assumed); experiment: SPR Biacore 3000, Fab periplasmic extract on Gal10-His-coated CM5
T1 construct: also called hGal10-His; human Gal10-His tagged; not shown: His tag
T1 sequence: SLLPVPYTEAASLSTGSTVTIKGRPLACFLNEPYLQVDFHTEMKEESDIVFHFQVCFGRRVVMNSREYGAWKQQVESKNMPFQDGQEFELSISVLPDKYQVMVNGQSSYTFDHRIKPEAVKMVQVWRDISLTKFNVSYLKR
Method: The binding properties of the Fabs (periplasmic extract) to human Gal10-His were analyzed by SPR with a Biacore 3000 instrument. For this purpose, the diluted periplasmic extract was applied on a CM5 chip coated with human Gal10-His. As a positive control, a 20 nM injection of the purified g7B07 clone in the human Fab backbone was included at the beginning and end of the run.
The binding capacity of the Fab periplasmic extract was analyzed by SPR technology using a Biacore 3000. Briefly, diluted periplasmic extracts were injected on CM5 chip coated with 2500 RU of Gal10-His. The amplitude of the binding (Rmax), the dissociation (off-rate) of each clone, as well as the off-rate fold change compared to the controls (g7B07 and g7B07_N53A) are indicated. Clones g20H09 and g23H09 had similar or better off rate compared to the control g7B07 (Table 10). The randomized part of the CDR2 sequence is underlined (Table 10).

[2] = target: T1, human Gal10-His; experiment: SPR Biacore 3000, purified hFab (2 conc.) on Gal10-His captured by anti-His CM5
[3] = target: T1, human Gal10-His; experiment: SPR Biacore 3000, hFab on human Gal10-His captured by anti-His CM5
[4] = target: T1, human Gal10-His; experiment: SPR against T0 reference; sample 4 weeks at 37 C
Method: The functional active concentration of the candidates was then assessed by SPR on a Biacore 3000 instrument (FIG. 4). All samples were evaluated with methods meeting the standard qualification criteria. Aliquots were tested at predefined test concentrations against titration curves from reference samples (T0, −80° C. storage) and in the presence of quality control (QC) samples covering a range of 70-130% relative activity (% RA) towards the reference material.
comparison/reference ⁽¹⁾ samples correspond to aliquots kept at +37° C. for 4 weeks ⁽²⁾ samples correspond to aliquots kept at +5° C. for 4 weeks prior to nebulization. In brief, samples were nebulized with an Aerogen Solo active vibrating mesh nebulizer that converted a drug solution into an inhalable aerosol. Three different devices for each time-point were used per clone and results are reported by the device (nebulizer) serial number. In case of device fouling, indicated by longer nebulization times […]

[5] = target: T1, human Gal10-His; experiment: SPR, overview table of lead Fab candidates
[6] = target: T1, human Gal10-His; experiment: competition ELISA on coated Gal10-His; hFab 20 ug/mL, competitor g7B07-hFab-Biot, streptavidin-HRP
Method: An epitope binning analysis of the humanized Fab clones was carried out in comparison with the humanized Fab of g7B07.
For this experiment, a sub-optimal concentration of the biotinylated clone g7B07-humanized Fab was added to the Gal10 coated plate and pre-incubated with the selected clones. The percentage competition with g7B07 was then determined (Table 17). Motavizumab (Mota) in a human Fab backbone was used as a negative control (0% competition). Clone g7B07 was used as the positive control for competition and was therefore set as the 100% competition value. The anti-human specific clone 1D11 (binding to Tyrosine 69 residue) was included in the tested panel as a negative control for competition with 7B07 for Gal10 binding because it was known that clone 1D11 binds to the opposite side of Gal10 (including Tyrosine 69).

[7] = target: T2, cynomolgus Gal10-His (WGS isoform) (cynomolgus); experiment: SPR Biacore 3000, hFab on captured cynomolgus Gal10-His (WGS); column head prints (M), the text gives nM
T2 construct: also called cynomolgus antigen
How it was run: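 Fab binding measured by SPR on Biacore 3000, with His-tagged human or cynomolgus (WGS isoform) Gal10 captured on an anti-His antibody-coated CM5 chip. Clones applied either at two concentrations (cynomolgus only) or as a serial dilution.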

[8] = target: T1, human Gal10-His; experiment: SPR Biacore 3000, purified hFab on captured Gal10-His
Method: The binding properties of the selected Fab clones to human Gal10 were analyzed via a capture method established on a Biacore 3000 instrument. Two concentrations of the selected Fab clones were tested on human Gal10-His immobilized on a CM5 chip coated with a monoclonal anti-His. As controls, the clone g7B07 and g7B07_N53A were injected at the beginning and the end of the run. Briefly, a CM5 chip was coated with a monoclonal anti-His antibody (4000 RU), then a fixed concentration of the human Gal10-His (25 μg/mL) was captured on the anti-His chip before receiving two concentrations of the clones in the human Fab backbone.

B1: g23H09 (Fab) (Fab, V domains shown)
VH: EVQLLESGGGLVQPGGSLRLSCAASGFTFRSYDMSWVRQAPGKGLEWVSAIAQFQHWTYYADSVKGRFTISRDNSKNTLYLQMNSLRAEDTAVYYCATTHGIGTLGFGSWGQGTLVTVSS
VL: SYELTQPLSVSVALGQTARITCDGNNIGSKSAQWYQQKPGQAPVLVIYADEYRPEGIPERFSGSNSGNTATLTISRAQAGDEADYYCQVWDGSAAVFGGGTQLTVL
notes: same VH/VL
For B1, the “Fold off-rate compared to g7B07” value [1] was 0.4 fold, the koff [1] was 0.0027 s⁻¹ and the Kd [2] was 3.9 nM. For the same binder, the “kd-fold drop vs g7B07” value [2] was 1.8 fold, the koff [2] was 0.0025 s⁻¹ and the kon [2] was 650000 M⁻¹ s⁻¹. The “Amplitude R0” value [3] was 722 RU, the koff [3] was 0.0031 s⁻¹ and the kon [3] was 590000 M⁻¹ s⁻¹. For the same binder, the “% relative activity by SPR” value [4] was 93%, the Kd [5] was 5.3 nM and the koff [5] was 0.0031 s⁻¹. The “% Competition against g7B07-Biot” value [6] was 94.3%, the “Mean OD value” [6] was 0.31 OD and the Kd [7] was 9.9 nM. The “fold better affinity than g7B07” value [8] was 2.8 fold.
